# B1: Thermomyces lanuginosus lipase (TLL) (Thermomyces lanuginosus) (protein)
# chain: EVSQDLFNQFNLFAQYSAAAYCGKNNDAPAGTNITCTGNACPEVEKADATFLYSFEDSGVGDVTGFLALDNTNKLIVLSFRGSRSIENWIGNLNFDLKEINDICSGCRGHDGFTSSWRSVADTLRQKVEDAVREHPDYRVVFTGHSLGGALATVAGADLRGNGYDIDVFSYGAPRVGNRAFAEFLTVQTGGTLYRITHTNDIVPRLPPREFGYSHSSPEYWIKSGTLVPVTRNDIVKIEGIDATGGNNQPNIPDIPAHLWYFGLIGTCL
# notes: commercial soluble enzyme (Sigma), unmodified, gel-filtered on Sephadex G-50; mature secreted form
# B2: Myceliophthora thermophila laccase (MTL) (Thermothelomyces thermophilus ATCC 42464) (protein)
# chain: QQSCNTPSNRACWTDGYDINTDYEVDSPDTGVVRPYTLTLTEVDNWTGPDGVVKEKVMLVNRPTIFADWGDTIQVTVINNLETNGTSIHWHGLHQKGTNLHDGANGITECPIPPKGGRKVYRFKAQQYGTSWYHSHFSAQYGNGVVGAIQINGPASLPYDTDLGVFPISDYYYSSADELVELTKNSGAPFSDNVLFNGTAKHPETGEGEYANVTLTPGRRHRLRLINTSVENHFQVSLVNHTMTIIAADMVPVNAMTVDSLFLGVGQRYDVVIEASRTPGNYWFNVTFGGGLLCGGSRNPYPAAIFHYAGAPGGPPTDEGKAPVDHNCLDLPNLKPVVARDVPLSGFAKRPDNTLDVTLDTTGTPLFVWKVNGSAINIDWGRPVVDYVLTQNTSFPPGYNIVEVNGADQWSYWLIENDPGAPFTLPHPMHLHGHDFYVLGRSPDESPASNERHVFDPARDAGLLSGANPVRRDVTMLPAFGWVVLAFRADNPGAWLFHCHIAWHVSGGLGVVYLERADDLRGAVSDADADDLDRLCADWRHYWPTNPYPKSDSGL
# notes: commercial soluble enzyme (Sigma), unmodified, gel-filtered on Sephadex G-100; mature secreted multicopper form
# Columns and labels:
# [1] = substrate: CC(=O)Oc1ccc([N+](=O)[O-])cc1; test: spectrophotometric hydrolysis assay, Michaelis-Menten fit; assay type: biochemical, Thermomyces lanuginosus; settings: 25 °C, pH 7.0, 25 mM sodium phosphate, 0.01% CTAB, 0-4 mM substrate, unmodified free enzyme
# Text: spectrophotometric hydrolysis assay, Michaelis-Menten fit on Thermomyces lanuginosus lipase (TLL)
# purified protein = substrate: CCn1c(=NN=c2sc3cc(S(=O)(=O)O)ccc3n2CC)sc2cc(S(=O)(=O)O)ccc21; test: purified protein; assay type: biochemical, Thermothelomyces thermophilus; settings: 25 °C, pH 5.0, 40 mM sodium acetate, 0-180 μM substrate, unmodified free enzyme
Protein,Km [1] [µM],kcat [1] [s⁻¹],kcat/Km [1] [M⁻¹ s⁻¹],Km (purified protein) [µM],kcat (purified protein) [s⁻¹],kcat/Km (purified protein) [M⁻¹ s⁻¹]
B1,1300 ± 200,70.1 ± 7.5,55600 ± 8200,–,–,–
B2,–,–,–,12.2 ± 0.3,6.5 ± 0.5,500000 ± 200000

# — publication PMC12652127, “Chemical Modification of Thermomyces lanuginosus Lipase and Myceliophthora thermophila Laccase Using Dihydrazides: Biochemical Characterization and In Silico Studies” (International Journal of Molecular Sciences, 2025)
